Reference: article PMC2932750 (Biochemistry, 2010)
Read-outs that look alike come from different tables or passages of the source. Where no end group is shown, it is not given here.

B1: dimerized YSA-C-10mer (peptide)
chain: YSAYPDSVPC
modifications: also: homodimer, disulfide between C-terminal cysteines of the two chains
B2: SWLA-13mer (peptide)
chain: SWLAYPDSVPMMS
modifications: C-terminal amide if made in house
B3: SWLA-10mer (peptide)
chain: SWLAYPDSVP
modifications: C-terminal amide if made in house
B4: SWLA-C-11mer (peptide)
chain: SWLAYPDSVPC
modifications: free C-terminal cysteine thiol; C-terminal amide if made in house
B5: Ala-4 peptide (YSA-12mer with alanine at position 4) (peptide)
chain: YSAAPDSVPMMS
modifications: C-terminal amide if made in house
B6: YSS-12mer (peptide)
chain: YSSYPDSVPMMS
modifications: C-terminal amide if made in house
B7: YSAF-12mer (peptide)
chain: YSAFPDSVPMMS
modifications: C-terminal amide if made in house
B8: YSA-C-10mer (monomeric) (peptide)
chain: YSAYPDSVPC
modifications: free C-terminal cysteine thiol; C-terminal amide if made in house

What was measured:
[1] = target: T1, EphA2 ligand-binding domain fused to human Fc (EphA2 Fc) (UniProt P29317 24-537); test: ELISA
T1 sequence (P29317 24-537): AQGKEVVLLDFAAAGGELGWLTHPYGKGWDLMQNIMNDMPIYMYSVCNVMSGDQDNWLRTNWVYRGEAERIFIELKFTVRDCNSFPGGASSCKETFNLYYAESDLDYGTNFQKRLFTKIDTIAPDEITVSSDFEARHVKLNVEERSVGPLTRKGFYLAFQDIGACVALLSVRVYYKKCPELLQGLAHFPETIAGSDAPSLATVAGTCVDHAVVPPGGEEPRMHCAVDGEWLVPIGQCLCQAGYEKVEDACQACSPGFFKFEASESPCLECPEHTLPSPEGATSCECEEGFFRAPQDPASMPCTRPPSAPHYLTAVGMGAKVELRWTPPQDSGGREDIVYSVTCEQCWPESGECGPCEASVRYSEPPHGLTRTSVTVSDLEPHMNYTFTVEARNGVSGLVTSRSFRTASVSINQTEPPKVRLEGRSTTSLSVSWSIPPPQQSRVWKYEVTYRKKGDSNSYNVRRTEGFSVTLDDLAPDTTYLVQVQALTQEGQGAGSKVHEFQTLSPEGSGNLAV

[2] = target: T1, EphA2 ligand-binding domain fused to …; test: ELISA; remark: listed apart in the source

| Binder | IC50 [1] [µM] | IC50 [2] [µM] |
| --- | --- | --- |
| B1 | 1.8 | – |
| B2 | 6.5 | – |
| B3 | 39 | – |
| B4 | 3.7 | – |
| B5 | – | > 100 |
| B6 | > 100 | – |
| B7 | 47 | – |
| B8 | 5.2 | – |
